Data: patent publication US20220380459A1 (DRAGONFLY THERAPEUTICS, published 2022)
Read-outs that look alike come from different tables or passages of the source.

B1: ADI-10157 IgG (antibody, V domains shown)
VH: QVQLQESGPGLVKPSETLSLTCTVSGGSISSYYWSWIRQPPGKGLEWIGSIYYSGSTNYNPSLKSRVTISVDTSKNQFSLKLSSVTAADTAVYYCARVGGVYSTIETYGMDVWGQGTTVTVSS
VL: EIVMTQSPATLSVSPGERATLSCRASQSVSSNLAWYQQKPGQAPRLLIYGASTRATGIPARFSGSGSGTEFTLTISSLQSEDFAVYYCQQYTVYPPTFGGGTKVEIK
notes: IgG; also called Ab13
B2: ADI-11807 Fab (Fab, V domains shown)
VH: EVQLVESGGGLVQPGGSLRLSCAASGFTFGSYWMSWVRQAPGKGLEWVATIKQDGSEKSYVDSVKGRFTISRDNAKNSLYLQMNSLRAEDTAVYYCARPLNAGELDVWGQGTMVTVSS
VL: DIQMTQSPSTLSASVGDRVTITCRASQSISSWLAWYQQKPGKAPKLLIYEASSLESGVPSRFSGSGSGTEFTLTISSLQPDDFATYYCQQSQSYPPITFGGGTKVEIK
notes: Fab fragment; also called Ab5; I07
B3: ADI-11809 Fab (Fab, V domains shown)
VH: EVQLVESGGGLVQPGGSLRLSCAASGFTFPSYWMSWVRQAPGKGLEWVATIKRDGSEKGYVDSVKGRFTISRDNAKNSLYLQMNSLRAEDTAVYYCARPLNAGELDVWGQGTMVTVSS
VL: DIQMTQSPSTLSASVGDRVTITCRASQSISSWLAWYQQKPGKAPKLLIYEASSLESGVPSRFSGSGSGTEFTLTISSLQPDDFATYYCQQSQSYPPITFGGGTKVEIK
notes: Fab fragment; also called Ab6
B4: ADI-11776 Fab (Fab, V domains shown)
VH: EVQLLESGGGLVQPGGSLRLSCAASGFTFSKYTMSWVRQAPGKGLEWVSAIVGSGESTYFADSVKGRFTISRDNSKNTLYLQMNSLRAEDTAVYYCAREGGPYYDSSGYFVYYGMDVWGQGTTVTVSS
VL: DIQMTQSPSTLSASVGDRVTITCRASQSISSWLAWYQQKPGKAPKLLIYKASSLESGVPSRFSGSGSGTEFTLTISSLQPDDFATYYCQQYDDLPTFGGGTKVEIK
notes: Fab fragment; also called Ab3; H76
B5: ADI-11819 Fab (Fab, V domains shown)
VH: EVQLVESGGGLVKPGGSLRLSCAASGFTFSSYAMSWVRQAPGKGLEWVSSISSSSEGIYYADSVKGRFTISRDNAKNSLYLQMNSLRAEDTAVYYCAREGGPYYDSSGYFVYYGMDVWGQGTTVTVSS
VL: DIQMTQSPSTLSASVGDRVTITCRASNSISSWLAWYQQKPGKAPKLLIYEASSTKSGVPSRFSGSGSGTEFTLTISSLQPDDFATYYCQQYDDLPTFGGGTKVEIK
notes: Fab fragment; also called Ab8
B6: ADI-11819 IgG (antibody, V domains shown)
VH: EVQLVESGGGLVKPGGSLRLSCAASGFTFSSYAMSWVRQAPGKGLEWVSSISSSSEGIYYADSVKGRFTISRDNAKNSLYLQMNSLRAEDTAVYYCAREGGPYYDSSGYFVYYGMDVWGQGTTVTVSS
VL: DIQMTQSPSTLSASVGDRVTITCRASNSISSWLAWYQQKPGKAPKLLIYEASSTKSGVPSRFSGSGSGTEFTLTISSLQPDDFATYYCQQYDDLPTFGGGTKVEIK
notes: IgG; also called Ab8
B7: ADI-11839 IgG (antibody, V domains shown)
VH: QVQLVQSGAEVKKPGASVKVSCKASGYTFSNYYMHWVRQAPGQGLEWMGWINPFSGGTRYAQKFQGRVTMTRDTSTSTVYMELSSLRSEDTAVYYCARDVGSSAYYYMDVWGKGTTVTVSS
VL: DIQMTQSPSSVSASVGDRVTITCEASKGISSWLAWYQQKPGKAPKLLIYAASDLQSGVPSRFSGSGSGTDFTLTISSLQPEDFATYYCQQAFLFPPTFGGGTKVEIK
notes: IgG; also called Ab28
B8: ADI-10158 Fab (Fab, V domains shown)
VH: QVQLQQWGAGLLKPSETLSLTCAVYGGSFSGYYWSWIRQPPGKGLEWIGEIDHSGSTNYNPSLKSRVTISVDTSKNQFSLKLSSVTAADTAVYYCARQGIHGLRYFDLWGRGTLVTVSS
VL: EIVMTQSPATLSLSPGERATLSCRASQSVSSYLAWYQQKPGQAPRLLIYDASNRATGIPARFSGSGSGTDFTLTISSLEPEDFAVYYCQQDHNFPYTFGGGTKVEIK
notes: Fab fragment; also called Ab14
B9: ADI-10168 Fab (Fab, V domains shown)
VH: QVQLVQSGAEVKKPGSSVKVSCKASGGTFSSYAISWVRQAPGQGLEWMGSIIPIFGTANYAQKFQGRVTITADESTSTAYMELSSLRSEDTAVYYCAREVGYGWYTKIAFDIWGQGTMVTVSS
VL: EIVLTQSPATLSLSPGERATLSCRASQSVSSYLAWYQQKPGQAPRLLIYDASKRATGIPARFSGSGSGTDFTLTISSLEPEDFAVYYCQQSSNHPSTFGGGTKVEIK
notes: Fab fragment; also called Ab21
B10: Fab fragment from Lintuzumab (Fab, V domains shown)
VH: QVQLVQSGAEVKKPGSSVKVSCKASGYTFTDYNMHWVRQAPGQGLEWIGYIYPYNGGTGYNQKFKSKATITADESTNTAYMELSSLRSEDTAVYYCARGRPAMDYWGQGTLVTVSS
VL: DIQMTQSPSSLSASVGDRVTITCRASESVDNYGISFMNWFQQKPGKAPKLLIYAASNQGSGVPSRFSGSGSGTDFTLTISSLQPDDFATYYCQQSKEVPWTFGQGTKVEIK
notes: Fab fragment
B11: Lintuzumab (antibody, V domains shown)
VH: QVQLVQSGAEVKKPGSSVKVSCKASGYTFTDYNMHWVRQAPGQGLEWIGYIYPYNGGTGYNQKFKSKATITADESTNTAYMELSSLRSEDTAVYYCARGRPAMDYWGQGTLVTVSS
VL: DIQMTQSPSSLSASVGDRVTITCRASESVDNYGISFMNWFQQKPGKAPKLLIYAASNQGSGVPSRFSGSGSGTDFTLTISSLQPDDFATYYCQQSKEVPWTFGQGTKVEIK
notes: IgG; also called lintuzumab IgG
B12: ADI-10165 Fab (Fab, V domains shown)
VH: EVQLVESGGGLVQPGGSLRLSCAASGFTFSSYWMSWVRQAPGKGLEWVANIKQDGSEKYYVDSVKGRFTISRDNAKNSLYLQMNSLRAEDTAVYYCARDVGPGIAYQGHFDYWGQGTLVTVSS
VL: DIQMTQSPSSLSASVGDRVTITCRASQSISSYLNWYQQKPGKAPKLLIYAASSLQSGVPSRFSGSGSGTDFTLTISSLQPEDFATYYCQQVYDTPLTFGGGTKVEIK
notes: Fab fragment; also called Ab19
B13: ADI-11835 IgG (antibody, V domains shown)
VH: QLQLQESGPGLVKPSETLSLTCTVSGGSISSTDYYWGWIRQPPGKGLEWIGSIGYSGTYYNPSLKSRVTISVDTSKNQFSLKLSSVTAADTAVYYCARETAHDVHGMDVWGQGTTVTVSS
VL: EIVLTQSPATLSLSPGERATLSCRASHSVYSYLAWYQQKPGQAPRLLIYDASNRATGIPARFSGSGSGTDFTLTISSLEPEDFAVYYCQQYDNLPTFGGGTKVEIK
notes: IgG; also called Ab10; I35

What was measured:
[1] = molecular target: T1, human CD33 extracellular domain (human, UniProt P20138 18-259); experiment: BLI Octet, IgG loaded;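 further: IgGs captured on AHC biosensors, exposed to 100 nM antigen for 3 min association then 3 min dissociation in buffer, kinetics fitted with a 1:1 binding model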
T1 construct: soluble monomeric ECD; also called human CD33 ECD; hCD33
Description: Briefly, ForteBio affinity measurements were performed by loading IgGs on-line onto AHC sensors. Sensors were equilibrated off-line in assay buffer for 30 min and then monitored on-line for 60 seconds for baseline establishment. Sensors with loaded IgGs were exposed to 100 nM antigen for 3 minutes, and afterwards were transferred to assay buffer for 3 min for off-rate measurement. All kinetics were analyzed using the 1:1 binding model.

[2] = molecular target: T2, cyno CD33 extracellular domain (Cynomolgus/Rhesus (cyno)); experiment: SPR, Fab captured, 37C;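 further: surface plasmon resonance with Fabs captured on anti-Fab surface, soluble monomeric CD33 as analyte at several concentrations, double-referenced 1:1 model fit, KD as koff/kon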
T2 construct: soluble monomeric ECD; also called cyno CD33 ECD

[3] = molecular target: T1, human CD33 extracellular domain; experiment: SPR, Fab captured, 37C
V domain of human CD33 [4] = molecular target: T3, V domain of human CD33 (human, UniProt P20138 18-139, limits assumed); experiment: SPR, Fab captured, 37C
T3 construct: recombinant, fully glycosylated V domain; also called Human CD33 V domain
Description: (§1) Kinetics and affinity of a series of Fab fragments of anti-CD33 antibodies with different CD33 variants (human CD33 ECD, cyno CD33 ECD, V-domain of human CD33, C-domain or human CD33 and selected CD33 SNPs) were assessed by surface plasmon resonance using Biacore 8K instrument (GE Healthcare). Anti-Fab antibody was immobilized on a CMS chip using standard amine coupling chemistry. CD33 FABs were captured on the anti-Fab chip at a density of ˜100 RU. Solutions containing different concentrations of soluble monomeric CD33 or its domains were injected over the captured FABs and control surfaces at 30 μl/min at 37° C. Surfaces were regenerated between cycles by quick injection of 10 mM glycine, pH 1.8. To obtain kinetic rate constants double-referenced data were fit to a 1:1 interaction model using Biacore 8K Evaluation software (GE Healthcare). The equilibrium binding constant KD was determined by the ratio of binding rate constants kd/kₐ.
(§2) The ability of anti-CD33 antibodies to recognize glycosylated CD33 was assayed. […] De-glycosylation status was confirmed by a shift on SDS-PAGE and MS.

[5] = molecular target: T4, deglycosylated V domain of human CD33 (human, UniProt P20138 18-139, limits assumed, N-glycans removed by PNGase); experiment: SPR, Fab captured, 37C
T4 construct: V domain deglycosylated by PNGase before testing; also called deglycosylated V CD33
Description: as §1, §2

V domain of human CD33 [6] = molecular target: T3, V domain of human CD33; experiment: SPR, Fab captured, 37C; remark: listed apart in the source
Description: as §1

[7] = molecular target: T1, human CD33 extracellular domain; experiment: SPR, Fab captured, 37C; remark: listed apart in the source
Description: as §1

C domain of human CD33 = molecular target: T5, C domain of human CD33 (human, UniProt P20138 140-259, limits assumed); experiment: SPR, Fab captured, 37C
T5 construct: recombinant C domain
Description: as §1
The binding interface between the Fab fragment of each CD33 antibody to CD33 was mapped.

[8] = molecular target: T1, human CD33 extracellular domain; experiment: SPR, Fab captured, 37C; remark: listed apart in the source
Description: as §1
Affinity of 29 Fab fragments binding to human and cyno CD33 ECD were assayed by Biacore analysis.

Row | Binder | Kd [1] [pM] | koff [1] [s⁻¹] | kon [1] [M⁻¹ s⁻¹] | Kd [2] [pM] | koff [2] [s⁻¹] | kon [2] [M⁻¹ s⁻¹] | Kd [3] [pM] | koff [3] [s⁻¹] | kon [3] [M⁻¹ s⁻¹] | Kd (V domain of human CD33 [4]) [pM] | koff (V domain of human CD33 [4]) [s⁻¹] | kon (V domain of human CD33 [4]) [M⁻¹ s⁻¹] | Kd [5] [pM] | koff [5] [s⁻¹] | kon [5] [M⁻¹ s⁻¹] | Kd (V domain of human CD33 [6]) [pM] | koff (V domain of human CD33 [6]) [s⁻¹] | kon (V domain of human CD33 [6]) [M⁻¹ s⁻¹] | Kd [7] [pM] | binding result (C domain of human CD33) | other results
1 | B1 | 4200 | 0.000336 | 79900 |  |  |  |  |  |  |  |  |  |  |  |  |  |  |  |  |  | 
2 | B2 |  |  |  | 150 | 0.000151 | 998000 | 290 | 0.000332 | 1.14e+06 | 280 | 0.000847 | 3.07e+06 | 190 | 0.000745 | 3.9e+06 | 280 | 0.000847 | 3.07e+06 | 290 | no binding | koff [7]: 0.000332 s⁻¹; kon [7]: 1.14e+06 M⁻¹ s⁻¹; Kd [8]: 290 pM; koff [8]: 0.000332 s⁻¹; kon [8]: 1.14e+06 M⁻¹ s⁻¹
3 | B3 |  |  |  | 118 | 0.000126 | 1.06e+06 | 1.2 | 1.23e-06 | 1.02e+06 | 300 | 0.000769 | 2.6e+06 | 210 | 0.000711 | 3.4e+06 | 300 | 0.000769 | 2.6e+06 | 1.2 | no binding | koff [7]: 1.23e-06 s⁻¹; kon [7]: 1.02e+06 M⁻¹ s⁻¹; Kd [8]: 1.2 pM; koff [8]: 1.23e-06 s⁻¹; kon [8]: 1.02e+06 M⁻¹ s⁻¹
4 | B4 |  |  |  | 1810 | 0.00472 | 2.62e+06 | 780 | 0.00124 | 1.6e+06 | 330 | 0.00143 | 4.52e+06 | 280 | 0.00136 | 4.85e+06 | 330 | 0.00143 | 4.52e+06 | 780 | no binding | koff [7]: 0.00124 s⁻¹; kon [7]: 1.6e+06 M⁻¹ s⁻¹; Kd [8]: 780 pM; koff [8]: 0.00124 s⁻¹; kon [8]: 1.6e+06 M⁻¹ s⁻¹
5 | B5 |  |  |  | 4960 | 0.019 | 3.82e+06 | 20 | 5.65e-05 | 2.84e+06 | 140 | 0.000916 | 6.75e+06 | 110 | 0.00103 | 9.15e+06 | 140 | 0.000916 | 6.75e+06 | 20 | no binding | koff [7]: 5.65e-05 s⁻¹; kon [7]: 2.84e+06 M⁻¹ s⁻¹; Kd [8]: 20 pM; koff [8]: 5.65e-05 s⁻¹; kon [8]: 2.84e+06 M⁻¹ s⁻¹
6 | B6 | 243 | 0.0002 | 824000 |  |  |  |  |  |  |  |  |  |  |  |  |  |  |  |  |  | 
7 | B7 | 2450 | 0.00172 | 704000 |  |  |  |  |  |  |  |  |  |  |  |  |  |  |  |  |  | 
8 | B8 |  |  |  |  |  |  |  |  |  | 127000 | 0.133 | 1.04e+06 | 88100 | 0.231 | 2.63e+06 | 127000 | 0.133 | 1.04e+06 |  | no binding | binding result [2]: no binding (tested: 100 nM)
9 | B9 |  |  |  |  |  |  |  |  |  |  |  |  |  |  |  |  |  |  |  | no binding | binding result [2]: no binding (tested: 100 nM); binding result [5]: no binding; binding result (V domain of human CD33 [6]): no binding
10 | B10 |  |  |  |  |  |  | 16700 | 0.0122 | 735000 |  |  |  |  |  |  |  |  |  |  |  | binding result [2]: no binding (tested: 100 nM)
11 | B11 | 2210 | 0.000952 | 431000 |  |  |  |  |  |  |  |  |  |  |  |  |  |  |  |  |  | 
12 | B12 |  |  |  |  |  |  |  |  |  |  |  |  | 156000 | 0.203 | 1.3e+06 |  |  |  |  | no binding | binding result [2]: no binding (tested: 100 nM)
13 | B13 | 281 | 0.000237 | 844000 |  |  |  |  |  |  |  |  |  |  |  |  |  |  |  |  |  | 
